Sequences and labels used below:
B1: TPR 5TU (parent)
chain: GGAUCUUCUCGAUCUAACAAAAAAGACAAAUCUGCCACAAAGCUUGAGAGCAUCUUCGGAUGCAGAGGCGGCAGCCUUCGGUGGCGCGAUAGCGCCAACGUUCUCAACUAUGACACGCAAAACGCGUGCUCCGUUGAAUGGAGUUUAUCAUG

Variants at the floor of the assay were thinned out. Bounds are passed on as bounds.

The variants in the series derive from B1. Put plainly: polymerase ribozyme fitness, log enrichment relative to wild type (log ratio); higher = more active; in vitro selection for triplet polymerase activity. A digest of the protocol:
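A single round of triplicate in vitro selection, including frozen incubation at −7 °C, was applied to PCR-built, transcribed mutant libraries of each subunit of a heterodimeric triplet polymerase ribozyme. Illumina sequencing of input and output libraries retained genotypes with ≥10 input reads and ≥1 read per output. Fitness is the base-2 logarithm of genotype enrichment divided by wild-type enrichment, from inverse-variance-weighted replicate averages.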
With G11U A12G U15A G58C G94U U151G, the “polymerase ribozyme fitness (log ratio)” value is no more than -4.2. With A29C C32A, the “polymerase ribozyme fitness (log ratio)” value was no more than -4.2. On to A24C G67C C87U A122U A142G, for which the “polymerase ribozyme fitness (log ratio)” value was no more than -4.2. The result for G25C G58A C72A G80A C87A C118G reads no more than -4.2; that for C14U A21U G50C U56A A66C A91U G143C, no more than -4.2. Take C76U A121U: the “polymerase ribozyme fitness (log ratio)” value came out at 0.67.

For the variant A47G C99A A142U, the “polymerase ribozyme fitness (log ratio)” value is -2.48. In the case of A30C C87G U101C, the “polymerase ribozyme fitness (log ratio)” value is no more than -4.2. The result for A41G U77G C85G C96U G124C reads no more than -4.2; that for A66G C69U, no more than -4.2; that for A26G G42C C95U A150U, no more than -4.2. A19U A39G G74U C85G G128C C129U: the “polymerase ribozyme fitness (log ratio)” value was no more than -4.2. The result for U33G U53G C54U G58A C69U C85A C114U U151A reads no more than -4.2; that for A12U G42C C72G C76A A91U A120U U144C, no more than -4.2; that for A91U C118G G141C, -3.94.

Consider C5G A41C G46C C57G A60U G68C U135A G141A, for which the “polymerase ribozyme fitness (log ratio)” value was no more than -4.2. The result for A49C U53G U56C A119C reads no more than -4.2; that for A17C C131G, -3.09.

For the variant A107U U135C, the “polymerase ribozyme fitness (log ratio)” value was -4.04. The result for C93A U104C reads -3.27; that for C35G C96U, -4.18.

As to A3C C85U G136C, the “polymerase ribozyme fitness (log ratio)” value was -3.76. G83U A122C G133C A147C: the “polymerase ribozyme fitness (log ratio)” value was -2.76. The result for C35A C54G G83A C125A reads no more than -4.2. The result for A19G U31G U44A G80A C123G G141C reads no more than -4.2; that for C54U G92C A121U, -0.244; that for A22C A39G U144C, -4.03.

For A16C G83U, the “polymerase ribozyme fitness (log ratio)” value is -1.56. The result for A47U G84U reads -1.78; that for C57U C96G, -0.76; that for U6C C18U G59C A66U A73C U101G U139C U144A, no more than -4.2. On to U33A A49C G50C C76A C85G A138U U151C, for which the “polymerase ribozyme fitness (log ratio)” value is no more than -4.2. The result for G42A A142C reads -4.17; that for A30G U82G A122G U146G, -4.18. The result for C99U A115C reads -1.19; that for C76U C87U C116A A122U U146G, -3.7; that for U15G C36G U111G G124A G141C A150U, no more than -4.2. The result for C14U A41U A60C A66U G80A C85U C103U reads no more than -4.2; that for C35A A60U U77A U82A G83C A97U G126A, -3.93. Take G68A A91U A107C A110G G141A: the “polymerase ribozyme fitness (log ratio)” value is no more than -4.2. For C14A A17U A21G C54U A60G, the “polymerase ribozyme fitness (log ratio)” value is -3.75. The result for C85U C116G U145A reads -2.57. The result for G59U C103U reads -0.503. The result for A17U A19U A22G G88U A110G reads no more than -4.2; that for C57A G65A, -0.56; that for C63G C72U C93U, -0.337. With C51G U55A, the “polymerase ribozyme fitness (log ratio)” value was -2.88. The result for G25A reads -1.62.

For A37G U61G C93U A115C, the “polymerase ribozyme fitness (log ratio)” value was -4.18.

Regarding C27G A39G G83A G143U, the “polymerase ribozyme fitness (log ratio)” value was no more than -4.2. The result for G58A C87G C116A A147C U151A reads no more than -4.2; that for C35A G62C U109G A122U A142C, no more than -4.2; that for G25U G84A, -3.07.

In the case of U53A C85U G133C, the “polymerase ribozyme fitness (log ratio)” value is -2.22. The result for U55A G94U G117U C131A G136A reads no more than -4.2; that for C35U, -0.0953.

As to U45A G67A C79A A91U A121G, the “polymerase ribozyme fitness (log ratio)” value was no more than -4.2. The result for G83U G133C reads -2.09; that for C57U C103G, -1.7; that for C14A G94U A107G, no more than -4.2.

C93G A119U: the “polymerase ribozyme fitness (log ratio)” value was -3.51. The result for C51A A52C A64C C95U U101C A121C G133C U135G reads no more than -4.2; that for U44A C54A C75G G92U U145C, no more than -4.2; that for C10G A21U A91G, no more than -4.2. The result for A22U A150C reads -2.85; that for A30G G50U U55G U82A, no more than -4.2. The result for C93U C116U G141A reads -0.0845.

For C35G U82A G94U G126A A138U, the “polymerase ribozyme fitness (log ratio)” value was no more than -4.2.

As to A29C U33A A41U G42A G83C C96U C108G, the “polymerase ribozyme fitness (log ratio)” value is no more than -4.2. The result for C35U C54G C85A reads -3.81; that for U53A G83A C103U C132U, -3.25; that for A22C G86U C131A, no more than -4.2. The result for A47U A97C reads 0.501; that for U6G C54U G81A U135G, -3.31; that for C14G C35A G42C A66G C96G G117U, no more than -4.2.

For the variant A97U U104G, the “polymerase ribozyme fitness (log ratio)” value was -0.956. The result for U7A A21C U53G U56A G58C A60U C75A reads no more than -4.2; that for U104G A120C, 0.532; that for C32U A49U C51U C75U U102C U146G, no more than -4.2. The result for A47G U55A C116G reads -0.139; that for A21G C54A G83U C87A C96U A122C, no more than -4.2; that for U55A C96A, -1.21. As for U31C C116A, the “polymerase ribozyme fitness (log ratio)” value stood at 1.96.

Source of the values: the RNAGym collection of RNA variant scans (doi:10.1073/pnas.2313332121).
